Test results taken from publication doi:10.1101/2023.01.21.525003.

What was measured:
Test in all cases: FRET or BRET
[1] = molecular target: Gluc-LHCGRv4 (Gaussia luciferase fused to the N-terminus of the luteinizing hormone/chorionic gonadotropin receptor) (human) (UniProt P22888)
[2] = molecular target: Gluc-LHCGR^Cys131Arg (human) (UniProt P22888)
[3] = molecular target: Gluc-LHCGR^Glu354Lys (human) (UniProt P22888)
[4] = molecular target: Gluc-LHCGR^Ile152Thr (human) (UniProt P22888)
Gluc-LHCGR^Ile152Thr (human), sequence (P22888 27-699 I152T): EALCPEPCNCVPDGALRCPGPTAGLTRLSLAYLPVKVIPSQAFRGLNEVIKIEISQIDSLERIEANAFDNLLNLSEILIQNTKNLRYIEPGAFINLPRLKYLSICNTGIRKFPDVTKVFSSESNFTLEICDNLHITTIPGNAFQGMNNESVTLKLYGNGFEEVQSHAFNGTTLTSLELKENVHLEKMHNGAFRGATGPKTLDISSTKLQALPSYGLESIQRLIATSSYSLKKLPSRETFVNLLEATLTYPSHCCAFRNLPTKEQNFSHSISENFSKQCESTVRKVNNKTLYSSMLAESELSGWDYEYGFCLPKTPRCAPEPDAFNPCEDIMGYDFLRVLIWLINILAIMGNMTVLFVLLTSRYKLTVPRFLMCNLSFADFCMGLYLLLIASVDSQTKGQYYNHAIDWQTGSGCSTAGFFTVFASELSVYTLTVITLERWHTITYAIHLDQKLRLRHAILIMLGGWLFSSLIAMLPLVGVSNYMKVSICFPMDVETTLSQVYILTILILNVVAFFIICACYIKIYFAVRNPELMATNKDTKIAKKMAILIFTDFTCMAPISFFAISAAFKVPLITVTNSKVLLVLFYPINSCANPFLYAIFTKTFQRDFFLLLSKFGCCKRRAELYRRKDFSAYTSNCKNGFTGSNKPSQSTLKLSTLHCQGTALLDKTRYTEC

Gluc-LHCGR^Cys131Arg (human), sequence (P22888 27-699 C131R): as the sequence (P22888 27-699 I152T) above, with C105R, T126I counted along it
Gluc-LHCGR^Glu354Lys (human), sequence (P22888 27-699 E354K): as the sequence (P22888 27-699 I152T) above, with T126I, E328K counted along it
Gluc-LHCGRv4 (Gaussia luciferase fused to the N-terminus of the luteinizing hormone/chorionic gonadotropin receptor) (human), sequence (P22888 27-699): as the sequence (P22888 27-699 I152T) above, with T126I counted along it

acceptor:donor (BRET) ratio, fold lower than equimolar yhCG^WT-eGFP [1] [fold lower]	acceptor:donor (BRET) ratio, fold lower than Gluc-LHCGR^WT [2] [fold lower]	acceptor:donor (BRET) ratio, fold lower than Gluc-LHCGR^WT [3] [fold lower]	acceptor:donor (BRET) ratio, fold lower than Gluc-LHCGR^WT [4] [fold lower]	Substance
4.6				yhCG^Glu80Ala-eGFP (yoked human chorionic gonadotropin with CGA Glu80Ala, fused to eGFP) (ligand)
	5.5	2.6	5.1	yhCG^WT-eGFP (yoked human chorionic gonadotropin fused to eGFP) (ligand)
